Patent US20070259805A1

molecular target: MITF-M expressed in HEK293 cells from the pCI mammalian expression vector (human) (UniProt O75030); test: cell-based or functional assay
Sequence of UniProt O75030 (O75030 other isoform, or with tags, fused parts or gaps limits assumed): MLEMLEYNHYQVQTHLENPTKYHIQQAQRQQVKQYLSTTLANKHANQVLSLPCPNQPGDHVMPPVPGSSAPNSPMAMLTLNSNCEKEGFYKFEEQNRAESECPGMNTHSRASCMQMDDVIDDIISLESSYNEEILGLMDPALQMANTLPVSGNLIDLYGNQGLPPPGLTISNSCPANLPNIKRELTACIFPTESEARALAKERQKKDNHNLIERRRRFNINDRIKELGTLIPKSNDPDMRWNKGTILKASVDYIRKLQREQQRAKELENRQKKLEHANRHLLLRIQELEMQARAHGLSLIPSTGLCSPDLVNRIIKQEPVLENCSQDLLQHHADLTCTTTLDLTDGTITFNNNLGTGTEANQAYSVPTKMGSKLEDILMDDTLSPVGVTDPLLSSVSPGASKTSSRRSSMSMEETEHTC

First: carboxy-terminal FLAG-tagged ELK4 protein expressed in HEK293 cells from pCI (from UniProt P28324 1-372)
Second: carboxy-terminal FLAG-tagged HLF protein expressed in HEK293 cells from pCI (from UniProt Q16534 1-295)
The luciferase activity (firefly/renilla) in a reporter assay using BCL2 gene promoter, HEK293 cells, against cells transfected only with the MITF-M gene expression plasmid of the first is lower: 1.4 fold for the first, 1.8 fold for the second.

With “CLOCK expressed in HEK293 cells from the pCI mammalian cell expression vector (from UniProt O15516 1-846)” the luciferase activity (firefly/renilla) in a reporter assay using BCL2 gene promoter, HEK293 cells, against cells transfected only with the MITF-M gene expression plasmid was 1.5 fold.
